Laboratory results reported in patent US20240409645A1 (DUALYX, published 2024).

T1: human IL-2Rβ (human, UniProt P14784 27-240, limits assumed)
T1 construct: Recombinant protein, coated (ELISA) or immobilised on CM5 (SPR); also called hu IL-2R; interleukin 2 receptor β-chain
T1 sequence: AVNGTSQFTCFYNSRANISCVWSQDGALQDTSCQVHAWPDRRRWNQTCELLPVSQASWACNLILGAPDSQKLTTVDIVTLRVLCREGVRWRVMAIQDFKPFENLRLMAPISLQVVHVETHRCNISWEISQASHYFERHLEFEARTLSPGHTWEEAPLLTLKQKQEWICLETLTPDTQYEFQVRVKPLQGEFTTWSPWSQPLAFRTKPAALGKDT


Experiments:
human IL-2Rβ [1] = molecular target: T1, human IL-2Rβ; experiment: P.E. binding ELISA on coated protein
Procedure: In a binding ELISA, human or mouse IL-2Rα, IL-2Rβ and IL-2Rγ proteins were coated directly on maxisorp microtiter plates overnight at 4° C. Free binding sites were blocked using 4% Marvel in PBS for 1 hour. Next, 1:5 dilution of P.E. in 1% Marvel/PBS were added to wells and incubated for 1 hour. […] Binding specificity was determined based on O.D. at 450 nm values compared to negative controls.

human IL-2Rβ [2] = molecular target: T1, human IL-2Rβ; experiment: SPR (Biacore), P.E. off-rate ranking

Row | P.E. binding ELISA OD (human IL-2Rβ [1]) | koff (human IL-2Rβ [2]) | Binder
1 | 1.25 OD450 nm | 0.000716 s⁻¹ | FJ1427 P035MP02B12 (VHH, soluble VHH in periplasmic extract; also called clone nr) VHH: QVQLVESGGGLVQAGGSLRLSCAASGRADSNAIMAWFRQAPGKEREFIVAVTYSGMPTYQDDSVQGRFTASRDNAKNTVYLQMNSLKPEDTAVYYCAARMYSASTYYGDYDYWGQGTQVTVSS
2 | 0.628 OD450 nm | 0.00294 s⁻¹ | FJ1427 P035MP02F12 (VHH, soluble VHH in periplasmic extract; also called clone nr; 190) VHH: QLQLVESGGGLVQTGTSLRLSCAASGHTSRINAMGWFRQFPGKEREFVAAISRNGGSTVYVDSVKGRFTISRDNAKSTVYLQMNSLKPEDTAVYYCTATDAVGWTTRWMTADFGFWGQGTQVTVSS
3 | 0.658 OD450 nm | 0.00144 s⁻¹ | FJ1427_P035MP02D12 (VHH, soluble VHH in periplasmic extract; also called clone nr) VHH: QVQLVESGGGLVQAGGSLTLSCAASGGAFSSDAKAWFRQAPGKEREFVAAITWAGRGTDYADSVKGRFTITRDNAKATVHLQMNSLKPEDTAVYYCALNPRGVIGPAFRNSNHYTYWGQGTQVTVSS
4 | 0.262 OD450 nm | 0.000431 s⁻¹ | FJ1427_P035MP03H04 (VHH, soluble VHH in periplasmic extract; also called clone nr) VHH: QVQLVESGGGLVQAGGSLALSCAASGGTFSSYAMGWFRQAPGKEREFVAATTRGGGRTMYAVSTEGRFSCSRDNAKNTVYLLIKNLKPEDTAVYYCAARTSYYDGTYYPASSDFDIWGQGTQVTVSS
5 | 0.329 OD450 nm | 0.000323 s⁻¹ | FJ1427 P035MP03E01 (VHH, soluble VHH in periplasmic extract; also called clone nr) VHH: QVQLVESGGGLVQAGGSLRLSCAASGGTFSSYAMGWFRQAPGKEREFVAATTRGGGRTMYAVSTEGRFTCSRDNAKNTVYLLMNSLKPEDTAVYYCAAMTSYYSGTYYPDSSDFDIWGQGTQVTVSS
6 | 0.316 OD450 nm | 0.000772 s⁻¹ | FJ1427 P035MP03H05 (VHH, soluble VHH in periplasmic extract; also called clone nr) VHH: QLQLVESGGGLVQAGGSLALSCAASGGTFSSYAMGWFRQAPGKEREFVAATTRGGGRTMYAVSTEGRFSCSRDNAKNTVYLLIKNLKPEDTAVYYCAARTSYYDGTYYPASSDFDIWGQGTQVTVSS
7 | 0.28 OD450 nm | 0.00104 s⁻¹ | FJ1427_P035MP03A02 (VHH, soluble VHH in periplasmic extract; also called clone nr) VHH: QVQLVESGGGLVQAGGSLRLSCAASGGTFSSYAMGWFRQAPGKEREFVAATTRGGGRTMYAVSTEGRFTCSRDNAENTVYLQMNSLKPEDTAIYYCAAMTSYYSGTYYPDSSDFDIWGQGTQVTVSS
8 | 0.395 OD450 nm | 0.000307 s⁻¹ | FJ1427 P035MP03C04 (VHH, soluble VHH in periplasmic extract; also called clone nr) VHH: EVQLVESGGGLVQAGASLELSCAASGGTFSSYAMGWFRQAPGKEREFVAATTRGGGRTMYAVSTEGRFSCSRDNAKNTVNLLIKNLKPEDTAVYYCAARTSYYDGTYYPASSDFDIWGQGTQVTVSS
9 | 0.192 OD450 nm | 0.00058 s⁻¹ | FJ1427_P035MP03G01 (VHH, soluble VHH in periplasmic extract; also called clone nr) VHH: EVQLVESGGGLVQAGGSLRLSCAASGGTFSSYAMGWFRQAPGKEREFVAATTRGGGRTMYAVSTEGRFTCSRDNAKNTVYLLMNRVKPEDTAVYYCAARTSYYSGTYYPASSDFDIWGQGTQVTVSS
10 | 0.307 OD450 nm | 0.00127 s⁻¹ | FJ1427 P035MP03D01 (VHH, soluble VHH in periplasmic extract; also called clone nr) VHH: QVQLVESGGGLVQPGGSLGLSCAASGFTFDNYAMSWVRQAPGKGLEWVSSITGAGRGTHYADSVKGRFTISRDNAKNTLYLQMNSLKPEDTAVYYCAKYSSSTYYPPTPARGTDYRGPGTQVTVSS
11 | 0.203 OD450 nm | 0.0011 s⁻¹ | FJ1427 P035MP03B01 (VHH, soluble VHH in periplasmic extract; also called clone nr) VHH: QVQLVESGGGLVQAGGSLRLSCAASGFTFSNYAMSWVRQAPGKGLEWVSSITGFGRGTDYADSVKGRFTISRDNAKNTLYLQMNSLKPEDTAVYYCARYSSSTYYPPTPARGTDYRGQGTQVTVSS
12 | 0.447 OD450 nm | 0.0016 s⁻¹ | FJ1427 P035MP03D04 (VHH, soluble VHH in periplasmic extract; also called clone nr; 220) VHH: QVQLVESGGGLVQPGGSLRLSCAASGFTFSNYAMSWVRQAPGKELEWVSSITSAGRGTHYADTVKGRFTISRDNDENTLYLQMNSLEPEDTAVYYCAKYSSATYYPPTPAQGRDYRGQGTQVTVSS
13 | 0.299 OD450 nm | 0.00116 s⁻¹ | FJ1427_P035MP03E06 (VHH, soluble VHH in periplasmic extract; also called clone nr) VHH: QVQLVESGGGLVQAGRSLGLSCAASGFTFDNYAMSWVRQAPGKGLEWVSSITGAGRGTHYADSVKGRFTISRDNAKNTLYLQMNSLKPEDTAVYYCAKYSSSTYYPPTPARGTDYRGPGTQVTVSS
14 | 0.113 OD450 nm | 0.00191 s⁻¹ | FJ1427_P035MP03F02 (VHH, soluble VHH in periplasmic extract; also called clone nr) VHH: QVQLVESGGGLVQPGGSLRLSCAASGFTFSNYAMSWVRQAPGKGLEWVSSITGAGRGTYYADSVKGRFTISRDNDKNTLYLQMNSLKPEDTAVYYCAKYDSSTYYPPTPARGIADRGQGIQVTVSS
15 | 0.108 OD450 nm | 0.0115 s⁻¹ | FJ1427_P035MP02E12 (VHH, soluble VHH in periplasmic extract; also called clone nr) VHH: QVQLQESGGGLVQAGGSMRLSCAASGRTFSNYVIAWFRQAPGKEREFVGAITQTGRGTFYASSVEGRFTLSRLNDQSTVYLQMNSLNPEDTGVYYCSAPRSGRAGTRNQMDYEYWGQGTQVTVSS
16 | 0.828 OD450 nm | 0.00159 s⁻¹ | FJ1427 P035MP03C02 (VHH, soluble VHH in periplasmic extract; also called clone nr) VHH: QVQLVESGGGLVQVGDSLRLSCAASGRTVGSANMGWFRQAPGKEREFVAVITWSTGSTVYADSVKGRFTISRDNAKNTVYLDMSSLKPEDTAVYYCAADVYPYSGNLNIMDYWGKGTLVTVSS
17 | 0.221 OD450 nm | 0.00447 s⁻¹ | FJ1427_P035MP03F01 (VHH, soluble VHH in periplasmic extract; also called clone nr) VHH: QVQLVESGGGLVQVGGSLRVSCAASGRTSGDRNMGWFRQAPGKEREFVGIITWSSGSTVYADSVKGRFTISRDNAKNTVYLDMSSLKPEDTAVYYCAADYYPYSGSWNIMDYWGKGTLVTVSS
18 | 0.265 OD450 nm | 0.000538 s⁻¹ | FJ1427_P035MP03D03 (VHH, soluble VHH in periplasmic extract; also called clone nr) VHH: QVQLVESGGGLVQVGDSLRLSCAASGRTVGSANMGWFRQAPGKEREFVAVITWSTGSTVYADSVKGRFTISRDNAKNTVYLDLSSLKPEDTAVYYCAADVYPYSGNLNIMDYWGKGTQVTVSS
19 | 0.529 OD450 nm | 0.00241 s⁻¹ | FJ1427_P035MP03B02 (VHH, soluble VHH in periplasmic extract; also called clone nr) VHH: EVQLVESGGGLVQVGDSLRLSCAASGRTVGSANMGWFRQAPGKEREFVAVITWSTGSTVYADSVKGRFTISRDNAKNTVYLDMSSLKPDDTAVYYCAADVYPYSGNLNIMDYWGKGTLVTVSS
20 | 0.327 OD450 nm | 0.000365 s⁻¹ | FJ1427_P035MP03H01 (VHH, soluble VHH in periplasmic extract; also called clone nr; 200) VHH: QVQLVESGGGSVQTGGSLRLSCVVSGSHFISDVMGWYRQVPGKQRELVADMADGGSAKYADSVKGRFTILRDSVKNTVTLQMSSLNPEDTGVYYCKAGLWITGRHSDYWGQGTQVTVTS
21 | 0.305 OD450 nm | 0.000373 s⁻¹ | FJ1427_P035MP03A04 (VHH, soluble VHH in periplasmic extract; also called clone nr) VHH: EVQLVESGGGSVQTGGSLRLSCVVSGSHFISDVMGWYRQVPGKQRELVADMADGGSVKYGDSVKGRFTILRDSVKNTVTLQMSSLNPEDTGVYYCKAGLWITGRHFDYWGQGTQVTVTS
22 | 0.116 OD450 nm | 0.000796 s⁻¹ | FJ1427 P035MP03D02 (VHH, soluble VHH in periplasmic extract; also called clone nr) VHH: QVQLQESGGGLVQTGGSLRLSCAVSGSRFISDVMGWYRQVPGKQRELVADMADGGSAKYADSVKGRFSILRDSVKNTVYLQMSSLKPEDTGIYYCKAGLWLAGRHSDYWGQGTQVTVSS
23 | 0.296 OD450 nm | 0.000248 s⁻¹ | FJ1427 P035MP03A03 (VHH, soluble VHH in periplasmic extract; also called clone nr) VHH: EVQLVESGGGSVQTGGSLRLSCVVSGSHFISDVMGWYRQVPGKQRELVADMADGGSVKYGDSVKGRFTILRDSVKNTVTLQMSSLNPEDTGVYYCKAGLWITGRHFDYWGQGTQVTVTS
24 | 0.31 OD450 nm | 0.000499 s⁻¹ | FJ1427_P035MP03B03 (VHH, soluble VHH in periplasmic extract; also called clone nr; 210) VHH: QLQLVESGGGLVQTGGSLRLSCAVSGSRFISDVMGWYRQVPGKQRELVADMADGGSAKYADSVKGRFSILRDSVKNTVYLQMSSLKPEDTGIYYCKAGLWIAGRHSDYWGQGTQVTVSS
25 | 0.182 OD450 nm | 0.00451 s⁻¹ | FJ1427 P035MP02A12 (VHH, soluble VHH in periplasmic extract; also called clone nr) VHH: QVQLQESGGGLVQAGGSLRLSCAVSGRSFRNYVMGWFRQAPGREREIVAGITQFTSTTYYDDSVKGRFTISRDNAKNTVYLQMNSLKPEDTALYYCAADRSIKMTADWAYWGQGTQVTVSS
26 | 0.616 OD450 nm | 0.00106 s⁻¹ | FJ1427_P035MP02C12 (VHH, soluble VHH in periplasmic extract; also called clone nr) VHH: EVQLVESGGGSVQAGGSLRLSCAASGRTFSDYTMGWFRQAPGKEREFVVAITGTGHTTDMPDSVEGRFTISRDNAKNTIYLDMKNLKPGDTAVYYCASARGLPVTPLGDIIYWGEGTLVTVSS
27 | 0.596 OD450 nm | 0.000439 s⁻¹ | FJ1427 P035MP03C10 (VHH, soluble VHH in periplasmic extract; also called clone nr) VHH: QVQLVESGGGLVQAGGSLRLSCAASGRTFSTTEMGWFRQAPGKEREFVAAITWTGRGTMYAESVEGRFTISRENAKNMVYLQMNSLKPEDTAIYYCAAARRGRAAVRSEGGYDFWGQGTQVTVSS
28 | 0.795 OD450 nm | 0.000773 s⁻¹ | FJ1427_P035MP02H11 (VHH, soluble VHH in periplasmic extract; also called clone nr) VHH: EVQLVESGGGLVQAGGSLRLSCAASGRTFSTTEMGWFRQAPGKEREFVAAITWTGRGTMYAESVEGRFTISRENAKNMVYLQMNSLKPEDTAIYYCAAARRGRAAVRSEGGYDFWGQGTQVAVSS
